Data published in US7691567B2, “Methods and compositions relating to fortilin, an anti-apoptotic molecule, and modulators of fortilin” (Board of Regents, the University of Texas System, priority 2000, dated 2010).
“Also recorded” adds a separate entry of the source. Like-named read-outs stand apart in the source and are kept apart here.

Key:
PCNA = PCNA (Homo sapiens, UniProt P12004); assay: In vitro pull-down assay of Fortilin-HA with PCNA; format: binding; conditions: in vitro translated proteins, anti-HA pull-down
Bak = molecular target: T1, Bak (Homo sapiens, UniProt Q16611); assay: In vitro pull-down assay of Fortilin-HA with Bak; format: binding; conditions: in vitro translated proteins, anti-HA pull-down
T1 sequence (Q16611 1-211): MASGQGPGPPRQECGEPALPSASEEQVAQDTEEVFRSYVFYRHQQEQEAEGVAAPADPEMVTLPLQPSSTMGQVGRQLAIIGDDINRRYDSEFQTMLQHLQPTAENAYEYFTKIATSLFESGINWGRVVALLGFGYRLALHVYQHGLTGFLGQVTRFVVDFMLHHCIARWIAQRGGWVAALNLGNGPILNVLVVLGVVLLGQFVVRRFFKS

p53 = p53 (Homo sapiens, UniProt P04637); assay: Coimmunoprecipitation of fortilin and p53 from U2OS cell lysates; format: binding; design: endogenous in cells; host or cells: U2OS
Protocol: As in example 2, studies were initiated to determine whether p53 and Fortilin specifically interact in U2OS cells. Six million U2OS cells stably expressing either HA-fortilin or HA-only were suspended in lysis-binding-wash buffer (50 mM HEPES, pH7.5, 70 mM KCl, 0.5 mM ATP, 5 mM MgSO4, 1 mM DTT, 0.1% NP40, 2 mg/mL BSA, Aprotinin, PMSF, MG132 and protease inhibitor cocktail). Cells were then mechanically disrupted by nitrogen excavitation method. Cleared total cell lysates were incubated with […] anti-HA antibody (3F10, Roche), followed by the incubation with anti-mouse IgG conjugated to magnetic beads (Dynal USA) and extensive wash with lysis-binding-wash buffer.
Further experiments were conducted to determine in vivo immunoprecipitation of fortilin by p53. Twenty million U2OS cells were suspended in lysis-binding buffer (50 mM HEPES, pH7.5, 70 mM KCl, 0.5 mM ATP, 5 mM MgSO4, 1 mM DTT, 0.001% NP40, 2 mg/mL BSA, Aprotinin, PMSF, MG132 and protease inhibitor cocktail). Cells were then mechanically disrupted by nitrogen excavitation method. Cleared total cell lysates were divided equally into two eppendorf tubes. To the first tube, anti-p53 antibody (DO-1, […]) was added, while […] control monoclonal antibody was added to the second tube. After incubation, formed complexes were precipitated by goat anti-mouse IgG conjugated to magnetic beads (Dynal USA), followed by extensive wash. […]

U2OS cells [1] = conditions: for cytotoxicity index relative to control transfectants: U2OS stable transfectants of HA-tagged Fortilin or deletion mutants, 5 μg/mL etoposide 48 hours
Text: Generation and characterization of U2OS cells stably expressing Fortilin. U2OS cells were transfected with empty pcDNA6, a mammalian expression vector containing a blasticidine resistance gene (Invitrogen, Carlsbad, Calif.), or with pcDNA6 vector encoding wild-type Fortilin, by using FuGENE6 (Roche Molecular Biochemicals) according to the manufacturer's instructions. Transfected cells were selected for approximately 3 weeks and characterized by Western blot analysis. For the cytotoxicity assay, U2OS cells stably expressing wild-type Fortilin (U2OS.F) and U2OS cells stably harboring empty pcDNA6 (U2OS.E) were seeded in a 96 well plate in quadruplicate. For the investigation of dose response, cells were challenged with various concentrations of etoposide (0-20 μg/mL) for 48 hours. For the time course study, cells were challenged with 5 μg/mL of etoposide and harvested after various incubation periods (0-96 hours). In both cases, the cell media were assayed for the lactate dehydrogenase (LDH) activity released from the cytosol of damaged cells, using a cytotoxicity detection kit (Roche Molecular Biochemicals) according to the manufacturer's instructions. The cytotoxicity index was calculated as follows: (LDH activity in the media−background LDH activity)÷(LDH activity in the medium of cells lysed by 1% Triton X-100−background LDH activity)×100.
Cell death assay. U2OS cells stably expressing Fortilin or its mutants were seeded in 96-well plates in triplicate. Cells were then challenged with 5 μg/mL of etoposide (Sigma) for 48 hours. Then the cell media were assayed for the lactate dehydrogenase (LDH) activity released from the cytosol of damaged cells, using a Cytotoxicity Detection Kit (Roche Molecular Biochemicals), according to the manufacturer's instructions. The cytotoxicity index was calculated as follows: (LDH activity in the media−background LDH activity)/(LDH activity in the medium of the cells lysed by 1% Triton X-100−background LDH activity)×100.
Statistical analysis. For analysis of the statistical significance of differences in cytotoxicity indices among cells stably transfected with Fortilin, its mutants or control plasmids, Student's t-test was performed using a commercial software (Minitab Inc., State College, Pa.). In all cases, a P-value less than 0.05 was considered to be statistically significant.

U2OS cells [2] = assay: Bax-mediated apoptosis in transfected U2OS cells (apoptotic index); format: cell-based; conditions: U2OS cells cotransfected with Bax-pcDNA3, thirty hours after transfection
Protocol: The amount of LacZ-pFLAG was 1/10 to 1/20 (w/w) of total amounts of DNA added. Thirty hours after the transfection, cells were stained with X-gal. Blue cells represented cells expressing Bax, β-galactosidase and indicated proteins in question. At least 300 blue cells were counted and evaluated for plasma membrane morphology. Rounded cells were counted as apoptotic. Apoptotic index was calculated as the number of blue apoptotic cells divided by the number of total blue cells counted, expressed in percentage. Without the expression of Bax, there was a modest amount of background cell death noted (Lane 6). On the other hand, the presence of Bax caused 2 holds increase in the number of apoptotic cells (Lane 5). […] Taken together, the ability of Fortilin to inhibit Bax mediated apoptosis is mediated by its interaction with MCL1.

Bcl-xL = Bcl-xL (Homo sapiens, UniProt Q07817); assay: In vitro pull-down assay of Fortilin-HA with Bcl-xL; format: binding; conditions: in vitro translated proteins, anti-HA pull-down
caspase 3-like activity = assay: Assay of caspase 3-like activity in U2OS stable transfectants (Z-DEVD-AFC); format: cell-based
Protocol: Assay of caspase 3-like activity. Approximately 2×10^6 U2OS stable transfectants, either expressing Fortilin (U2OS.F) or harboring empty expression vector (U2OS.E), both of which have been characterized above, were challenged either with dimethyl sulfoxide (DMSO) (vehicle) or with etoposide at a final concentration of 10 μg/mL for 48 hours. Caspase 3-like activity was then determined as previously described (Mannick et al., 1999). In brief, cytosolic proteins were extracted in hypotonic cell lysis buffer (25 mM HEPES, pH 7.5, 5 mM MgCl2, 5 mM EDTA, 5 mM dithiothreitol, 0.05% phenylmethylsulfonyl fluoride [PMSF]; all from Sigma) by three cycles of freezing and thawing. The protein concentration of samples was determined by using a BioRad Bradford protein assay kit (BioRad). Ten micrograms of cytosolic extracts were added to caspase assay buffer (312.5 mM HEPES, pH 7.5, 31.25% sucrose, 0.3125% CHAPS) with Z-DEVD-AFC as substrates (CalBiochem, San Diego, Calif.). Release of 7-amido-4-(trifluoromethyl)coumarin (AFC) was quantified, after 2 hours of incubation at 37° C. (or, in the case of time course experiment, every 10 minutes), using a Fluoroskan system (Thermo-Labsystems, Helsinki, Finland) set to an excitation value of 355 nm and emission value of 525 nm. The results were expressed as relative fluorescence unit (R.F.U.) per microgram of protein.

Sequence of PCNA (P12004 whole entry, species assumed): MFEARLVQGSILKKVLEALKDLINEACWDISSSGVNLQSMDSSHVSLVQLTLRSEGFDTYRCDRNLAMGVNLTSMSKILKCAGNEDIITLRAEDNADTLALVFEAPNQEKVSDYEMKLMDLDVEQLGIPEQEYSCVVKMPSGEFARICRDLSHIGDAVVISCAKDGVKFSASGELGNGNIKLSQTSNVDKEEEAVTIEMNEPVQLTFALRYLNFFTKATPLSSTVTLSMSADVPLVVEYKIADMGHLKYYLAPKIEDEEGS
Sequence of p53 (P04637 whole entry, species assumed): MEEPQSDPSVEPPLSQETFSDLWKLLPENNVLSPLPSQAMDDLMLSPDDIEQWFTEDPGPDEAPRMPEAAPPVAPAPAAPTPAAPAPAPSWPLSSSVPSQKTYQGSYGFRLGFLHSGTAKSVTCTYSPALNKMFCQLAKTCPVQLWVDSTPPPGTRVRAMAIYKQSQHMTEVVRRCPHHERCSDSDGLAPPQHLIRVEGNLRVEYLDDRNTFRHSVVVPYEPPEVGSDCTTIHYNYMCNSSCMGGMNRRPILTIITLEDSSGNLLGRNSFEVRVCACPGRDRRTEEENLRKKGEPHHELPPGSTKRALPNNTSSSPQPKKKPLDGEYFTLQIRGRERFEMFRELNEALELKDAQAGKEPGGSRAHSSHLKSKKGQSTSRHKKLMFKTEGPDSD
Sequence of Bcl-xL (Q07817 whole entry, species assumed): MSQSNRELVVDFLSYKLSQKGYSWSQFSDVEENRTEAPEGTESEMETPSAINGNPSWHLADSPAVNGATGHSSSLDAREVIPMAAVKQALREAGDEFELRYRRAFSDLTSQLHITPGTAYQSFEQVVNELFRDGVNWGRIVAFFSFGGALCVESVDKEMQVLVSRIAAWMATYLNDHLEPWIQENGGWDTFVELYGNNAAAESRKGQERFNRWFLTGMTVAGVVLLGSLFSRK

Substance: Fortilin: 172 amino acid anti-apoptotic polypeptide (SEQ ID NO:2), overexpressed from expression constructs or used as recombinant/in vitro translated protein
- co-immunoprecipitation of PCNA with Fortilin in vitro (PCNA): not PCNA
- co-immunoprecipitation of Bak with Fortilin in vitro (Bak): not
- co-precipitation of fortilin and p53 in vivo (p53): The presence of immunoprecipitated p53 was necessary and sufficient to co-precipitate fortilin
- cytotoxicity index relative to control transfectants (U2OS cells [1]; listed as wild type Fortilin): significantly lower
- cytotoxicity index relative to control transfectants (U2OS cells [1]; listed as wild-type fortilin): significantly lower than the cytotoxicity index of control cells
- etoposide-induced cytotoxicity (LDH cytotoxicity index), time course (U2OS cells [1]; U2OS stably expressing Fortilin vs empty vector, 5 μg/mL etoposide, 48, 72, 96 hours): lesser amounts of etoposide-induced cytotoxicity after incubation periods of 48, 72, and 96 hours; also recorded: significantly less cytotoxicity at various time points after the etoposide challenge
- etoposide-induced cytotoxicity (LDH cytotoxicity index), dose response (U2OS cells [1]; U2OS stably expressing Fortilin vs empty vector, etoposide 2.5, 5, 10, 20 μg/mL, 48 hours): significantly lesser amounts of etoposide-induced cytotoxicity; also recorded: significantly less cytotoxicity over the wide range of etoposide concentrations
- prevention of Bax mediated apoptosis (apoptotic index) (U2OS cells [2]): suppressed Bax induced cell death
- co-immunoprecipitation of Bcl-xL with Fortilin in vitro (Bcl-xL): not
- inhibition of caspase-3-like activity, kinetics (caspase 3-like activity; U2OS cells, 10 μg/mL etoposide, signals every 10 minutes for 2 hours): significantly inhibited the caspase-3-like activity in U2OS cells at all time points
- inhibition of caspase-3-like activity upon etoposide challenge (caspase 3-like activity; U2OS cells, etoposide 10 μg/mL 48 hours, vs empty vector): significantly inhibited the caspase-3-like activity in U2OS cells
- caspase-3-like activity (caspase 3-like activity; U2OS stably expressing Fortilin (U2OS.F), absence of etoposide challenge (DMSO)): 283±22.6 R.F.U./μg protein
- caspase-3-like activity index (caspase 3-like activity; U2OS stably expressing Fortilin (U2OS.F), etoposide 10 μg/mL 48 hours): 713.9±62.6 R.F.U./μg protein
